The source of these data is PMC11602657, “Nap1 and Kap114 co-chaperone H2A-H2B and facilitate targeted histone release in the nucleus” (The Journal of Cell Biology, 2024).

Data set [1] deals with T1, MBP-Kap114 YDAA (Y939A/D942A) (S. cerevisiae, UniProt P53067 1-1004, Y939A | D942A).
T1 construct: Kap114, S. cerevisiae, h19loop mutant; source: E. coli BL21 Gold, purified; not shown: MBP, N-terminal, kept
T1 sequence (looked up): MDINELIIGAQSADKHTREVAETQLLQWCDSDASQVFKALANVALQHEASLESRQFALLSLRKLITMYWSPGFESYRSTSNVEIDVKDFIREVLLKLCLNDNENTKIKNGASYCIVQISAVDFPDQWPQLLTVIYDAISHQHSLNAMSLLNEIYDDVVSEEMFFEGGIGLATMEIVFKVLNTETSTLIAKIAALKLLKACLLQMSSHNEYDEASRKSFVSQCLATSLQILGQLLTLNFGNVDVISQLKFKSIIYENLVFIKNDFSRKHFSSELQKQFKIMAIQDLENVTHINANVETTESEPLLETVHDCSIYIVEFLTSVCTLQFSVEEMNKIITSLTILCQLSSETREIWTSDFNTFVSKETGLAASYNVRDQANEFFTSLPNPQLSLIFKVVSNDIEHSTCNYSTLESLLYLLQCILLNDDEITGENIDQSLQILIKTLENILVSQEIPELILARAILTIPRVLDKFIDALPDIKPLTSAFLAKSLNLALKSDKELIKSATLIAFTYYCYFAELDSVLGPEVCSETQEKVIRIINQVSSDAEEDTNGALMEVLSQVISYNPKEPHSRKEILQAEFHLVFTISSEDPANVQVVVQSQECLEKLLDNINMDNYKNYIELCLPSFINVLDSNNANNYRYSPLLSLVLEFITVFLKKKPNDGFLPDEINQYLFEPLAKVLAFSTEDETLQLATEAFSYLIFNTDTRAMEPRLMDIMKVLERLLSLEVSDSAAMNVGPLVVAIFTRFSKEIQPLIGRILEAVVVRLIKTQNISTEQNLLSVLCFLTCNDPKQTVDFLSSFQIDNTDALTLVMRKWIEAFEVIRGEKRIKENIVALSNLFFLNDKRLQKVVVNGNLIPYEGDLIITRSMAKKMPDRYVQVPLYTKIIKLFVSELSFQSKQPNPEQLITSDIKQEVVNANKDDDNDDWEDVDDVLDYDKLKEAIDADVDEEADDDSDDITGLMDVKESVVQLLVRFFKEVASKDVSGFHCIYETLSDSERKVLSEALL
Briefly: pull-down; MBP-Kap114 (WT or mutant; or MBP alone) 1 µM immobilized on amylose resin, equimolar Nap1_(2) ± H2A-H2B (1 or 2 µM) ± Ran^GTP; Assay Buffer (20 mM HEPES pH 7.4, 150 mM NaCl, 2 mM MgCl2, 10% glycerol, 2 mM DTT), 30 min at 4°C; Coomassie-stained SDS-PAGE. As to conditions: both partners purified.

For data set [2], the target named is T2, MBP-Kap114 DDAA (D928A/D929A) (S. cerevisiae, UniProt P53067 1-1004, D928A | D929A).
T2 construct: Kap114, S. cerevisiae, h19loop mutant; source: E. coli BL21 Gold, purified; not shown: MBP, N-terminal, kept
T2 sequence (looked up): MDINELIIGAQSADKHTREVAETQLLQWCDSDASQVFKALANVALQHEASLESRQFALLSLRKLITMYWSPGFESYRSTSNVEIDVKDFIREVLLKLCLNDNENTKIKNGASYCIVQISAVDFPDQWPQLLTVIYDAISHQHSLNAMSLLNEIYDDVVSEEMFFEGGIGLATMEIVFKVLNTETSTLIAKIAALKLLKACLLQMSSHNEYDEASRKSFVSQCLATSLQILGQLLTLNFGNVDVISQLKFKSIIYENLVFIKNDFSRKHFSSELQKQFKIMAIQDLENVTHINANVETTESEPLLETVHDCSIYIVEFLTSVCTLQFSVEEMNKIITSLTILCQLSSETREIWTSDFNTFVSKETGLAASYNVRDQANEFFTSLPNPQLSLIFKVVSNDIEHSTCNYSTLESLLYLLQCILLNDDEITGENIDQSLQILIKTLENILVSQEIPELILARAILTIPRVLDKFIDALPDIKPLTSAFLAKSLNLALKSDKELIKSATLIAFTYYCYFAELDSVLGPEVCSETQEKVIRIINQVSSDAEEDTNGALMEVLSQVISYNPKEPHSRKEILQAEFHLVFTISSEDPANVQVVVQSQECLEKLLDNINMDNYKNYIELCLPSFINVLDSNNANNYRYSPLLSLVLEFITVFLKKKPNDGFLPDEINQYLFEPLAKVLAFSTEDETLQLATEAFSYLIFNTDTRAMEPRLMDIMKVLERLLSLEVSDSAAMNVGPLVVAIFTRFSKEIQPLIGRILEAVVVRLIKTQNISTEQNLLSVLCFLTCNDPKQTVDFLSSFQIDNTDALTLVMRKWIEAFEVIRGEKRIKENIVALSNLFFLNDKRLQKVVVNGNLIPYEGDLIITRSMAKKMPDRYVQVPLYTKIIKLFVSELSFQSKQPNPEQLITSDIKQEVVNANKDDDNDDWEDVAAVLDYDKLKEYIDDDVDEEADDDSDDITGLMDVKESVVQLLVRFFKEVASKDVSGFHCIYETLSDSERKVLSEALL
The description is as above. As to conditions: both partners purified.

Data set [3] concerns the target T3, Kap114 (S. cerevisiae, UniProt P53067 1-1004).
T3 construct: also called Sc Kap114; source: E. coli, expressed as GST-Kap114, purified (Glutathione Sepharose 4B, on-column TEV cleavage, SEC)
T3 sequence: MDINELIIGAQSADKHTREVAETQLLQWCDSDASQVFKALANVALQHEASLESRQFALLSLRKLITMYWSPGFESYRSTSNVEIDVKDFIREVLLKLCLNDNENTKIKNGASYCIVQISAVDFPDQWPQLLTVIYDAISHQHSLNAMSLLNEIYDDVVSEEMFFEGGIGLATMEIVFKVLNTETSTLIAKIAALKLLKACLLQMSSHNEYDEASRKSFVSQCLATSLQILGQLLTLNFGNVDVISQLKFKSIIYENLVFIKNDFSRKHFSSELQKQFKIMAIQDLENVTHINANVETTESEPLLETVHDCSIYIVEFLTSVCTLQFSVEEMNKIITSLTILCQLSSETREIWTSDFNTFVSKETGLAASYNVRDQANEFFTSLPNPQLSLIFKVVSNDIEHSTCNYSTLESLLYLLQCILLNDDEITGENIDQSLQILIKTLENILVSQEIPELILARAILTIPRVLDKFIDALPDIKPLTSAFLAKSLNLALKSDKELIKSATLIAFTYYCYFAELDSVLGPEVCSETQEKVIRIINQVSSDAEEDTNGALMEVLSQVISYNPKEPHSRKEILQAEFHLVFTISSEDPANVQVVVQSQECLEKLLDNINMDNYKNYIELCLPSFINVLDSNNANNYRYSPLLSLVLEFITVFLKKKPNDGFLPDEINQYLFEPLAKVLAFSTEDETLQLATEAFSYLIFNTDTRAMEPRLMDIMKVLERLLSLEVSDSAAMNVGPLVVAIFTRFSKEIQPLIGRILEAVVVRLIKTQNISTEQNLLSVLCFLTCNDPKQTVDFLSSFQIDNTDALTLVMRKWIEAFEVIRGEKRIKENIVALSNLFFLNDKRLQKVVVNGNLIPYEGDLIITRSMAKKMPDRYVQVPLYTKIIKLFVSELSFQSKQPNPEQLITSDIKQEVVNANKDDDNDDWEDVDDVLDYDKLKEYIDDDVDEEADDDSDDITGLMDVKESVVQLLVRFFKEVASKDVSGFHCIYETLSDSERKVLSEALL
The data set is described as follows: SEC-MALS; proteins alone or binary mixtures at the indicated molar ratios to 80 µM Kap114; Assay buffer without glycerol; Nap1 counted as dimer. As to conditions: both partners purified. (In general: Size exclusion chromatography separates by hydrodynamic size, large species first.)

Data set [4] deals with the molecule itself. Described as above.

Values joined by “and” are separate entries in the source; they are usually repeats but may differ in a detail not shown here. Equal values may be shown once.

B1: Nap1 FL (C200A, C249A, C272A) (natural protein, S. cerevisiae, UniProt P25293 1-417, looked up)
chain: MSDPIRTKPKSSMQIDNAPTPHNTPASVLNPSYLKNGNPVRAQAQEQDDKIGTINEEDILANQPLLLQSIQDRLGSLVGQDSGYVGGLPKNVKEKLLSLKTLQSELFEVEKEFQVEMFELENKFLQKYKPIWEQRSRIISGQEQPKPEQIAKGQEIVESLNETELLVDEEEKAQNDSEEEQVKGIPSFWLTALENLPIVADTITDRDAEVLEYLQDIGLEYLTDGRPGFKLLFRFDSSANPFFTNDILAKTYFYQKELGYSGDFIYDHAEGAEISWKDNAHNVTVDLEMRKQRNKTTKQVRTIEKITPIESFFNFFDPPKIQNEDQDEELEEDLEERLALDYSIGEQLKDKLIPRAVDWFTGAALEFEFEEDEEEADEDEDEEEDDDHGLEDDDGESAEEQDDFAGRPEQAPECKQS
notes: Nap1 (nucleosome assembly protein 1), S. cerevisiae, full length (FL), with C200A, C249A, C272A for specific labeling on 414C; pHAT4 vector, gift from Sheena D'Arcy; Counted as a dimer (Nap1_(2)) in all molar ratios; alone a mixture of dimers and tetramers; also called Nap1_(2); Nap1_(2) FL; source: E. coli BL21 gold, purified (Ni-NTA, TEV cleavage, HiTrap Q, Superdex S200)
By stoichiometry N is commonly meant the number of molecules, sites or subunits per partner or assembly. B1: the binding result in data set [1] and in data set [2] was “binds” each time. The “stoichiometry N” value in data set [3] is 1; in data set [4] it was 2 and 4.
